These results are taken from patent publication US20260216374.

In this data set the test system is Human POU5F1B (HA-tagged, overexpressed in SW480 cells).

Chain of ZDHHC-17 palmitoyl transferase (chain, as listed by the source): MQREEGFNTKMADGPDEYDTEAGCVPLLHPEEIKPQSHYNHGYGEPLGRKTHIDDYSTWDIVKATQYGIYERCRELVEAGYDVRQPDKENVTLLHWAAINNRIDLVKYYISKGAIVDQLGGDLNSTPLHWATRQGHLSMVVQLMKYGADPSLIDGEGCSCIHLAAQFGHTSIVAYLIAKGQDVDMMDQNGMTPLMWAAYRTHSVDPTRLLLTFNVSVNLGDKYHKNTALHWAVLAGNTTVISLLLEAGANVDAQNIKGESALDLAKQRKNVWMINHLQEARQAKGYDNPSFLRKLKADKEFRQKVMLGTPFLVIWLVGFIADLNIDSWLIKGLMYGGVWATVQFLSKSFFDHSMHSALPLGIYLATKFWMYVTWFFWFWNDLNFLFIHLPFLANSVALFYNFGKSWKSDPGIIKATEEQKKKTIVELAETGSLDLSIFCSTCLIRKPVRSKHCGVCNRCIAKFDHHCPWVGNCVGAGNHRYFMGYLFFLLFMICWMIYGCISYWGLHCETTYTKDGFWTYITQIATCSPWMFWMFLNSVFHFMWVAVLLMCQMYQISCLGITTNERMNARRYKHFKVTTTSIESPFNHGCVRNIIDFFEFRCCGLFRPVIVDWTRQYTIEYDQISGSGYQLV

ZDHHC-17 palmitoyl transferase: the “DRM association of POU5F1B upon ZDHHC-17 knockdown” value is recorded as “POU5F1B dissociates from DRMs upon ZDHHC-17 knockdown”.
